The series is described as follows: yeast display, Sf9 membrane polyspecificity reagent, FACS + sequencing; frameworks hold sequencing errors. The essentials: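 A nanobody's polyreactivity label depends on the gate it was sorted from. Yeast display cells were stained with 10% biotinylated, detergent-solubilized Sf9 membrane reagent for 1 hour at 4 °C, enriched on streptavidin microbeads and sorted by FACS. The low and high (top ~1%) gates were set on anti-HA fluorescence for expression and streptavidin fluorescence for reagent binding.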
Regarding “QVQLVESGGGLVQAGGSLRLSCAASGFTFYGNAMGWYSQAPGKERELVAAISSGGSTNYADSVKGRFTISRDNAQNTVSLQMNSLKPEDTAVYYCAASSPRQVSFPYASIGFDYWGQGTQVTVSS”, the “polyreactivity (PSR sort gate)” value is on record as “low polyreactivity”.

For “QVQLVESGGGLVQAGGSLRLSCAASGFTFATYDMGLYRQAPGKERELVAAISRSGGRTYYADSVKVLFTISRDYAKNTVYLQMNSLKPEDTAVYYCAKYVPGYPYDYWGQGTQVTVSS”, the “polyreactivity (PSR sort gate)” value is “high polyreactivity”.

Take “QVQLVESGGGLVQAGGSLRLSCAASGNTFRRYAMGWYRQAPGKEREFVAAISSSGGRTYYADSVKGRFTISRDNAKNTVYVQMNSLKPEDTAVYYCNAVSYWVRGEMDYWGQGTQVTVSS”: the “polyreactivity (PSR sort gate)” value is reported as “high polyreactivity”.

Turning to “QVQLVESGRGLVQAGGRHRISCAASGSIIHDYAMGLYSQAPGKERELVAVISTSGGSTYYADSVKGRFTMSRDNAKNTVYLQMISLKPEETEVYYCNARTVGPYPSHAALEYDSWGPGTQVTVSS”, the “polyreactivity (PSR sort gate)” value is “low polyreactivity”.

On to “QVQLVESGGGLVQAGGSLRLSCAASGYTFNRYAMGWYRQAPGKERELVAAITRGGTTYYADSVKGRFTISRDNAKNTVYLQMNSLKPEDTAVYYCNKFQPSGQYFKMGYWGQGTQVTVSS”, for which the “polyreactivity (PSR sort gate)” value is on record as “high polyreactivity”.

Turning to “QVQLVESGGGLVQAGGSLRLSCAASGRTFIYYTMGWYREAPGKERELVASISFSGGRTYYADSVKGRFTISRDNAKNTVYLQMNSLKAEDTAVYYCNRVLYYQVDYWGQGTEVTVSS”, the “polyreactivity (PSR sort gate)” value is “high polyreactivity”.

For “QVQLGESGGGLVQAGGSLRLSCAASGSTFAYNERGWYSQAPGHERELVADIRSGGNTNYADSVKGRFTISRDNAKNTVYLQMPSLKPEDTAVYYCATDGYRIDVYHPDYRYDYWGQGTQVTVSS”, the “polyreactivity (PSR sort gate)” value is “low polyreactivity”.

For “QVQLVESGGGLVQAGGSLRLSCAAYGSTFSTYAMGWYRQAPGKEREMVAAITLSSGRTTYADSVKGRFTISRDNAKNTVYLQMNSLKPEDTAVYYCNAYYGAAFTYWDYYWGQGTQVTVSS”, the “polyreactivity (PSR sort gate)” value was “low polyreactivity”.

In the case of “QVQLVESGGGLDQAGGSLRLSCAAAGRTFPYYAMGWYRQAPGKERELVATISTSGTSTYYADSVKGRFTISRDKAKNTVYLQMNSLKPEDTAVYYCNAVHRNWRQKFDYWGLGTQVTVSS”, the “polyreactivity (PSR sort gate)” value is “high polyreactivity”.

Turning to “QVQLVESGGGLVQAGGSLRLSCAASGGIFVLYAMGWYRQAPGKERELVAAIRYGGSSTYYADSVKGRFTISRDYAKNTVYLQMNSLKPEDTAVYYCAAEPYSWDTWVDYDYWGQGTQVTVSS”, the “polyreactivity (PSR sort gate)” value was “low polyreactivity”.

“QVQLVESVGGLVQAGGRLRLSCAASGSIFLYNAMGWYRQAPGKERELVAVINGRGGTYYADSVKGRFTISRDNAKNTVYLQMNSLKPEDTAVYYCATGYPPSAGYDSVRFEDRDSWGQGTQVTVSS”: the “polyreactivity (PSR sort gate)” value was “low polyreactivity”.

Regarding “QVQLVESGGGLVQAGGSLRLICAASGFIFSYYAMGWYRQAPGKERELVAAISKTGGNTYYADSVKGRFTISRDYAKNTVYLQMNSLKPEDTAVYYCNALRGDWRDMGYWGQGTQVTVSS”, the “polyreactivity (PSR sort gate)” value is recorded as “high polyreactivity”.

As to “QVQLVESGGGLVQAGCSLRLSCAASGSVFTVYSMGWYRQAPGKERELVAAITRNGGRTYYADSVKVRFTISRDNSKNTVYLQMKILKPEDTAVYSCAATGLYSRLDYWGQGTQVTVSS”, the “polyreactivity (PSR sort gate)” value is “high polyreactivity”.

For the sequence “QVQLVESGGGLVQAGGSLRLSCAASGFIFRRYTMGWYRQAPGKERELVATITRSVNTDYADSVKGRFTISRDNAKNTVYLQMNSLKPEDTAVYYCAARKYYYFPVAYDYWGQGTQVTVSS”, the “polyreactivity (PSR sort gate)” value was “high polyreactivity”.

As to “QVQLVESGGGLVQAGGSLRLSCAASGSIFASYAMGRYRQAPGKERELVAAISRSGGSTYYADSVKGRFTISRDNAKNTVYLQMNSLKPEDTAVYYCATGKIREDDYWGQGTQVTVSS”, the “polyreactivity (PSR sort gate)” value is on record as “high polyreactivity”.

As for “QVQLVESGGGLVQAGGSLRLSCAASGSTFGRNTMGWYRKAPGKERELVASITRSSTSTNYADSVKGRFTISRDNAKNTVYLQMNSLKPEDTAVYYCAARALRTDRSPVGSHEYWGQGTQVTVSS”, the “polyreactivity (PSR sort gate)” value was “low polyreactivity”.

For the sequence “QVQLVESGGGLVQAGGSLRLSCAASGSTSHQYAMGSYRQAPGKERELVAAISSRAGSTYYADSVKGRFTISRDNAKNTVYLQMNSLKPEDTAVYYCAAEADSWKWGYDYWGQGTQVTVSS”, the “polyreactivity (PSR sort gate)” value is given as “low polyreactivity”.

On to “QVQLVESGGGLVQAGGSPRLSCAASGSISNYYGMGWYRQAPRKERELVAAITWGGGRTNYADSVKGRFTISRDNAKNTVYLQMNSLKPEDTAVYYCAKVSVTHRYGAGGDYWGQGTQVTVSS”, for which the “polyreactivity (PSR sort gate)” value is reported as “low polyreactivity”.

On to “QVQIVESGGGLVQAGGSLRLSCAASGRIIRDYDMGWYRQAPGKERELVAAITFRSGSTYYADSEKGRFTISRDNAKNTVYLLMNSLKPEDTAVYYCADANSILLFDSWGQGTQVTLSS”, for which the “polyreactivity (PSR sort gate)” value is given as “low polyreactivity”.

As to “LVQLVESGGGLVQAGGSLRLSCAASGSTFFYAMGWYRQAPGKERELVAGIVWSGGSTYYADSVKGRFTISRDNAKNTVYLQMNSLKPEDTAVYYCPAEYTDDYWGQGTQVTVSS”, the “polyreactivity (PSR sort gate)” value was “low polyreactivity”.

As for “QVQLVESGGGLVQAGGSLRVSCAASGFTFYLYAMGWYRQAPGKERELVAAITWSGGRTYYADSVKGRFTISRDNAKNTVYLQMNSLKPEDTAVYNCAAVVRKQLSAPSDYWGQGTQVTVSS”, the “polyreactivity (PSR sort gate)” value is on record as “high polyreactivity”.

As to “QVQLVESGGGLVQAGGSLRLSSAASGRTFEVYAMGWYRQAPGKERELVATITYSGGITYYADSVKGRFTISRDNAKNTVYLQMNSLKPEDTAVYYPIGVGGDYDYWGQGTQVTVSS”, the “polyreactivity (PSR sort gate)” value is listed as “low polyreactivity”.

As for “QVQLVESGGGLVQAGGSLSVSCAASGFTFDRYAMGWYRQAPGKERELVAAISGSGDSTFYADSVKGRFTISRDNAKNTVYLQMNSLKPVDTAVYYCNAKRSFRWTYGYWGQGSQVTVSS”, the “polyreactivity (PSR sort gate)” value was “high polyreactivity”.

In the case of “QVQLVESGGGLVQAGGSLRLSCADSGRIFTSYVMGWYRPAPGQERELVAAITRSGGSTYYADSVKGRFTNSRDNAKNTVYLQMNSLKPEDTAVYYCIALTRRQKGGEGGGYWGQGTQVTVSS”, the “polyreactivity (PSR sort gate)” value is listed as “high polyreactivity”.

On to “QVQLVESAGGLVQAGGSLRLSCAASGRTFWSYAMGWSRQAPGKERELVAAINSGGSTYYADSVKGRFTISRDNAKITVYLQRNSLKPEDTAVYYCDADTWYGFDWGVGTQVTVSS”, for which the “polyreactivity (PSR sort gate)” value is “high polyreactivity”.

Consider “QDQLVESGGGLVQAGGSLRLSCAASGSIFARYAMGWYRQAPGKERELVAAINSTVSTNYADSVKGRFTISRDNAKNTVYLQMNSLKPEDTAVYYCAVDIVRGGRDSWGQGTQVTVSS”, for which the “polyreactivity (PSR sort gate)” value was “low polyreactivity”.

Consider “QVQLVESGGCLFQAGGSLRLSCAASGNIFLYYAMGWYRQAPGKERELVADIDSSGASTYYADSVKGRFTISRDNAKNTGYLQMNSLIPEDTAVYDCDKDSNRYSYYSPYDSWGQGTQVTVSS”, for which the “polyreactivity (PSR sort gate)” value is reported as “low polyreactivity”.

“QVQLVESGGGFVQAGGSLRLSCAASGCTVRWNAKGWYRQATGKDRELVAAITYSGGSTYYADSVKGRLTISRDIANNTVYLQMNSLNPEDTAVYYCATEGRGYFCYYTDDYWGQGTQVTVSS”: the “polyreactivity (PSR sort gate)” value was “high polyreactivity”.

For the sequence “QVQLVESGGGLVQAGGSLRLSCAASGRIFHPNVMGWYRQAPGKERELVAAISSGGSTYYADSVKGRFTISRDNAKNTVYLQMNSLKPEDTAVYYCATRIRSGSYPYPRYDYWGQGTQVTVSS”, the “polyreactivity (PSR sort gate)” value is reported as “high polyreactivity”.

For the sequence “QVQIVESGGGVVQAGGILRLSCAASGYTFTVYGMGWYRQAPGKERELVARITWSGGTTRYADSVKGRFTISRDNAKNNVYLQMNSLKPEDTAVYYCAASYWRPKRYRYDYWGQGTQVTVSS”, the “polyreactivity (PSR sort gate)” value was “high polyreactivity”.
